Results from patent US12527862B2, “Bactericidal/permeability increasing protein for use in a method of immunization, preferably as an adjuvant in a method of vaccination” (UNIVERSITÄT REGENSBURG, priority 2018, dated 2026).

Assays:
[1] = tested on: bone marrow derived dendritic cells (BMDCs); assay: FACS surface expression of maturation markers/costimulatory molecules on BMDCs; assay type: cell-based, C57BL/6J mice; conditions: huBPI 200 nM, 18 h, vs unstimulated cells, n=4 (FIG. 1)
Description: BMDCs were generated from the bone marrow of male C57BL/6J mice at the age of approximately 3 to 7 months, which were bred under SPF conditions. BMDCs were generated as previously described. BMDCs were harvested on day 7 by rinsing the dish in order to obtain the non-adherent and loosely-adherent cell fractions.
Cell Stimulation 5×10^4 BMDCs per well were seeded into a tissue-culture-treated 96-well plate in VLE-RPMI 1640 media (10% FCS, 10% Penicillin-Streptomycin, 50 µM β-Mercaptoethanol) and stimulated with 200 nM huBPI.
BMDCs were stimulated with huBPI (200 nM) for 18 h. After the stimulation period, the stimulated and unstimulated cells were incubated with Fc-Block and stained using the indicated antibodies (Table 1) and the respective isotype controls (Table 2). 7-Aminoactinomycin D (7-AAD, #00-6993-50, eBioscience) positive stained cells were excluded from the analysis. Flow cytometry measurement was performed using the instrument BD FACS Canto™ II (BD Bioscience). Data was analyzed using BD FACSDiva™ software v.7.0 (BD Bioscience) as well as FlowJo v.10 (Tree Star).

[2] = tested on: bone-marrow derived dendritic cells; assay: Microarray gene expression analysis in BMDCs; assay type: cell-based, C57BL/6J mice; conditions: 4 h
Description: All methods mentioned in this example were carried out as described in Example 1. BMDCs were seeded into a tissue-culture-treated 96-well plate in VLE-RPMI 1640 media (10% FCS, 10% Penicillin-Streptomycin, 50 μM β-Mercaptoethanol) and stimulated with 200 nM huBPI or muBPI. 4 h after stimulation, gene expression analysis was performed by microarray analysis (Affymetrix Mouse Gene 2.0 ST, FIGS. 2A and 2B).

[3] = tested on: BMDCs; assay: Quantitative real-time PCR gene expression in BMDCs; assay type: cell-based, C57BL/6J mice; conditions: BMDCs stimulated with BPI; rtPCR normalized to HPRT, also microarray (FIGS. 2B and C)
Description: Gene expression analyses using rtPCR were performed 30 min, 1 h, 2 h, 4 h, 8 h, 12 h, 24 h and 48 h after the stimulation.
After stimulation, cells were lysed and RNA was isolated using RNeasyR Mini Kit (#74106, Qiagen). Remaining DNA in the sample was digested using TURBO DNA-free™ Kit (#AM1907, ThermoFisher Scientific). Finally, the RNA concentration was measured with a NanoDrop 1000 (Thermo Scientific). The isolated RNA was transcribed into complementary DNA (cDNA) using the iScript™ª Advanced cDNA Synthesis Kit (#1725038, Bio-Rad).
To analyze altered gene transcription, in particular of genes CXCL10, HPRT, IL-2, IL-6, and IL-12p40, in response to different stimulatory reagents, quantitative real-time PCR (qRT-PCR) was performed using SYBR-Green Master Mix (LightCycler® 480 SYBR Green I Master, #4707516001, Roche). Gene-specific primers synthesized by Thermo Fisher Scientific, Microsynth, Biomers, and Metabion were used. PCR reaction was performed using the HT 7900 Real-Time PCR system (Applied Biosystems). SDS software version 2.4 (Applied Biosystems) was used to analyze the gene expression, which was normalized to the housekeeping gene HPRT. 2^-ΔΔCT method was used to analyze the data.

[4] = tested on: murine dendritic cells (BMDC); assay: TNFα ELISA in murine dendritic cells (BMDC); assay type: cell-based; conditions: LPS Ec 10 ng/ml or BPI 100 nM, 18 h, ELISA (FIG. 4A)
Description: Generation of BMDM was carried out similarly to BMDCs; MCSF was used instead of GMSCF for differentiation of BMDM. Cells were re-plated on day 1 of culture and harvested on day 5. On day 1, cells were seeded in new plates and harvested on day 5 for the experiments. Cells were stimulated with LPS Ec (10 ng/ml) or BPI (100 nM) for 18 h before supernatants were collected. TNFα levels were determined by ELISA (OPTEIA™ Murine TNFα ELISA Set, BD Bioscience, Heidelberg, Germany).

[5] = tested on: human peripheral blood mononuclear cells; assay: Stimulation of human peripheral blood mononuclear cells, TNFα ELISA; assay type: cell-based; conditions: BPI 500 nM, 18 h
Description: After informed consent, blood was drawn from healthy male volunteers using heparinized blood collection tubes and PBMCs were separated using leucosep tubes containing FICOLL® PAQUE PLUS (Oxford Immunotec, Abingdon, Great Britian) at 1,000×g for 10 min. The pellet was resuspended in AIM VR Medium (Thermo Fisher Scientific Inc., Waltham, MA, USA), counted, and cultivated in 96-well plates for 4 h (1×10^5/100 μl). Then cells were stimulated with (R)-Pam3CSK4 (bLP, 1 nM) or LTA S. pneumoniae Δlgt (a lipoprotein deficient strain, LTA SPΔlgt, 1 μM, n=4) in the presence or absence of BPI (500 nM). The supernatants were collected after 18 h for determination of cytokine concentration by ELISA according to the manufacturer's instructions (OPTEIA™ Human TNFα ELISA Set, BD Biosciences, Heidelberg, Germany).

B1: bactericidal/permeability-increasing protein (protein)
chain: RIKIPDYSDSFKIKHLGKGHYSFYSMDIREFQLPSSQISMVPNVGLKFSISNANIKISGKWKAQKRFLKMSGNFDLSIEGMSISADLKLGSNPTSGKPTITCSSCSSHINSVHVHISKSKVGWLIQLFHKKIESALRNKMNSQVCEKVTNSVSSELQPYFQTLPVMTKIDSVAGINYGLVAPPATTAETLDVQMKGEFYSENHHNPPPFAPPVMEFPAAHDRMVYLGLSDYFFNTAGLVYQEAGVLKMTLRDDMIPKESKFRLTTKFFGTFLPEVAKKFPNMKIQIHVSASTPPHLSVQPTGLTFYPAVDVQAFAVLPNSSLASLFLIGMHTTGSMEVSAESNRLVGELKLDRLLLELKHSNIGPFPVELLQDIMNYIVPILVLPRVNEKLQKGFPLPTPARVQLYNVVLQPHQNFLLFGADVVYK
modifications: labeled with NT647 (Monolith NT Protein Labeling Kit RED-NHS) in the MST experiments
notes: recombinant human BPI, aa32-487 of huBPI with N-terminal HA signal peptide, expressed in HEK293T cells
In the case of B1, the “expression of costimulatory receptors CD40, CD80, and CD86” value [1] is reported as “promotes expression of costimulatory receptors CD40, CD80, and CD86”, the “immunostimulatory effect on BMDCs (gene expression)” value ([2]; 200 nM huBPI or muBPI, microarray (FIG. 2A)) is reported as “shows an immunostimulatory effect on BMDCs” and the “induced genes important for activation and priming of T cells” value ([2]; 200 nM, microarray (FIG. 2B)) is reported as “IL-2 is the highest induced cytokine”. For the same molecule, the “CXCL10, IL-2, IL-6, and IL-12p40 mRNA expression” value [3] was “increase of CXCL10, IL-2, IL-6, and IL-12p40 mRNA expression”, the “TNFα secretion by dendritic cells” value [4] was “secrete TNFα” and the “effect of BPI alone on PBMCs” value [5] was “minor effect”.
